Target: T1, exoplasmic domain of human CD40 (GST-CD40) (Homo sapiens, UniProt P25942)
T1 construct: The cDNA for the exoplasmic domain of CD40 (amino acids 20-212); made in house; host or cells: E. coli, pGEX-2T
Assay: GST-CD40 binding and competition assay with recombinant Hsp70 and its domains
Description: For binding assays with recombinant Hsp70 and its domains, 3 μM His6-Hsp70 or its His6-tagged domains were incubated with 2 mM ATP, 2 mM ADP or 2 mM ADP and 28 μM peptide C in 50 μl binding buffer (10 mM MOPS/KOH, pH 7.2, 150 mM KCl and 3 mM MgCl2) for 30 min at 37° C. In competition experiments binding was probed with either a 10-fold excess of Hsp70, the two domains, or DnaK, or with a 5-fold excess of Hip or Bag 1 for 10 min at 0° C. To this end, Hsp70, N70, C70 and DnaK were preincubated with ADP, ATP and peptide C as described above. For comparison of CD40 binding of Hsp70 and its N-terminal domain, Hsp70 was preincubated in the presence or absence (mock treatment) of a 30-fold molar excess of peptide C. 3 μM of GST or GST-CD40 was added to the samples and incubated for 20 min at 16° C. For titration of peptide C, 5- to 50-fold excess of peptide C (15-150 μM) was added to the preincubation of Hsp70. Thereafter the samples were combined with 20 μl of 1% BSA-treated Glutathione Sepharose 4 Fast Flow and incubated in the presence of 2 mM DTT for another 20 min at 16° C. Unbound proteins were removed by washing the beads three times with 1 ml PBS, and immobilized proteins eluted with 30 μl elution buffer for 20 min at 22° C. 10 μl of the eluates were subjected to SDS-PAGE and analyzed by immunoblotting using a Penta-His-antibody (Quiagen). Blot signals were quantified by Quantity One (Biorad).
Details for FIG. 3. Binding of Hsp70 to CD40 is direct and depends on ADP. A. Hela-cell lysates were incubated with GST (control), or GST-CD40 in the amounts indicated. Thereafter samples were affinity purified on glutathione-Sepharose as outlined in Experimental Procedures, subjected to SDS-PAGE and analyzed by immunoblotting with antibodies directed against Hsc70 and Hsp70 (upper lanes), and against Hsp90 (lower lanes). B. Human recombinant His6-tagged Hsp70 was incubated with ATP, ADP, or an excess of peptide C, followed by addition of GST-CD40 or GST alone. After affinity purification samples were analyzed by immunoblotting as described in A, using antibodies directed against the His6-tag. C. Recombinant human His6-tagged Hsp70 was incubated with peptide C, either in the presence or absence of ADP. The reactions were then incubated with ANA1-cell lysates as described in Experimental Procedures. Protein bound to Hsp70 was analyzed by affinity purification on Ni-NTA-agarose and immunoblotting with antibodies directed against CD40.
Details for FIG. 4. Hsp70 binding to CD40 is mediated by the N-terminal ATPase domain and is competed by Hip. A. Human His6-tagged Hsp70, its N- or C-terminal domains, or recombinant bacterial DnaK was incubated either with GST-CD40, or with GST. B. Recombinant DnaK was incubated with ATP, ADP, or an excess of peptide C, followed by addition of GST-CD40 or GST alone. C. His6-tagged N-terminal domain of Hsp70 (N70) was incubated in the presence of ATP or ADP, followed by incubation with a 10-fold molar excess of Hsp70 in the presence of ADP or ATP. D: Recombinant human His6-tagged Hsp70 protein was incubated with a 5-fold molar excess of either recombinant Hip protein or Bag-1, and with GST-CD40 or GST as a control. Bound protein was analyzed after affinity purification on glutathione-Sepharose by immunoblotting with an antibody directed against the N-terminal His6-tags or with an antibody directed against DnaK.
Details for FIG. 5. Peptide substrate stimulates Hsp70 binding to CD40. A. His6-tagged Hsp70 was incubated with increasing concentrations of peptide C as indicated in the Figure, and binding to GST-CD40 analyzed by immunoblotting with antibodies directed against the His6-tag. The lower panel is a quantitation of the data. B. Equivalent concentrations (3 μM) of His6-tagged Hsp70 (in the presence of a 30-fold molar excess of peptide C) or His6-tagged N70 was incubated with GST-CD40, and bound protein was analyzed as described above.

T1 sequence (P25942 20-212): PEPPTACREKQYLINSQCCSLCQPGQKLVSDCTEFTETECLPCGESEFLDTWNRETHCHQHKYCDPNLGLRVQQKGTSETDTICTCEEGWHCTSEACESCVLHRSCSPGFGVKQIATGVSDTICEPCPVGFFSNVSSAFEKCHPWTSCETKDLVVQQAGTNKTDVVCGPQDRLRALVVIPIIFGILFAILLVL

Substance	Hsp70 binding to CD40 in the presence of ADP (3 μM His6-Hsp70, 2 mM ADP)	Hsp70 binding to CD40 in the presence of ATP (3 μM His6-Hsp70, 2 mM ATP)	binding efficiency to CD40, substrate-saturated Hsp70 versus N-terminal domain (3 μM each, ADP states, Hsp70 with 30-fold molar excess of peptide C)	direct binding to CD40 (GST-CD40 pull down), nucleotide dependence (ADP versus ATP)	competition for the binding of full-length Hsp70 to CD40 (ADP, 5-fold molar excess of competitor)
Hsp70: Recombinant human heat shock protein 70, expressed and purified as His-tagged protein	only seen in the presence of ADP	barely detectable	–	–	–
N70: Recombinant N-terminal ATPase domain of human Hsp70, residues 5-381 (SEQ ID NO: 1)	–	–	bound to CD40 with similar efficiencies	bound to CD40 in the presence of ADP but not ATP	efficiently competed

— US20040071656A1, “Modulation of heat-shock-protein-based immunotherapies” (priority 2001, published 2004)
